Assay results: patent US20240010747A1, “ANTI-MRP4 (ENCODED BY ABCC4 GENE) ANTIBODIES AND USES THEREOF” (Kenjockety Biotechnology, Inc., priority 2020, published 2024)
Numbering of substitutions follows the chain as printed. One block for each molecule: values may come before it.

Legend:
human ABCC4 [1] = biological target: T1, human ABCC4 (Homo sapiens, UniProt O15439); assay: Flow cytometry (FACS) binding to C6 cells stably transfected to express human ABCC4 (different experiment, Table 4); conditions: for Human ABCC4 binding: C6 cells stably transfected to express human ABCC4, FACS, different experiment, Table 4; for binding to human ABCC4 expressed on cell surface: Table 4 study, stated in words
T1 construct: expressed in transfected cells
T1 sequence (O15439 1-1325): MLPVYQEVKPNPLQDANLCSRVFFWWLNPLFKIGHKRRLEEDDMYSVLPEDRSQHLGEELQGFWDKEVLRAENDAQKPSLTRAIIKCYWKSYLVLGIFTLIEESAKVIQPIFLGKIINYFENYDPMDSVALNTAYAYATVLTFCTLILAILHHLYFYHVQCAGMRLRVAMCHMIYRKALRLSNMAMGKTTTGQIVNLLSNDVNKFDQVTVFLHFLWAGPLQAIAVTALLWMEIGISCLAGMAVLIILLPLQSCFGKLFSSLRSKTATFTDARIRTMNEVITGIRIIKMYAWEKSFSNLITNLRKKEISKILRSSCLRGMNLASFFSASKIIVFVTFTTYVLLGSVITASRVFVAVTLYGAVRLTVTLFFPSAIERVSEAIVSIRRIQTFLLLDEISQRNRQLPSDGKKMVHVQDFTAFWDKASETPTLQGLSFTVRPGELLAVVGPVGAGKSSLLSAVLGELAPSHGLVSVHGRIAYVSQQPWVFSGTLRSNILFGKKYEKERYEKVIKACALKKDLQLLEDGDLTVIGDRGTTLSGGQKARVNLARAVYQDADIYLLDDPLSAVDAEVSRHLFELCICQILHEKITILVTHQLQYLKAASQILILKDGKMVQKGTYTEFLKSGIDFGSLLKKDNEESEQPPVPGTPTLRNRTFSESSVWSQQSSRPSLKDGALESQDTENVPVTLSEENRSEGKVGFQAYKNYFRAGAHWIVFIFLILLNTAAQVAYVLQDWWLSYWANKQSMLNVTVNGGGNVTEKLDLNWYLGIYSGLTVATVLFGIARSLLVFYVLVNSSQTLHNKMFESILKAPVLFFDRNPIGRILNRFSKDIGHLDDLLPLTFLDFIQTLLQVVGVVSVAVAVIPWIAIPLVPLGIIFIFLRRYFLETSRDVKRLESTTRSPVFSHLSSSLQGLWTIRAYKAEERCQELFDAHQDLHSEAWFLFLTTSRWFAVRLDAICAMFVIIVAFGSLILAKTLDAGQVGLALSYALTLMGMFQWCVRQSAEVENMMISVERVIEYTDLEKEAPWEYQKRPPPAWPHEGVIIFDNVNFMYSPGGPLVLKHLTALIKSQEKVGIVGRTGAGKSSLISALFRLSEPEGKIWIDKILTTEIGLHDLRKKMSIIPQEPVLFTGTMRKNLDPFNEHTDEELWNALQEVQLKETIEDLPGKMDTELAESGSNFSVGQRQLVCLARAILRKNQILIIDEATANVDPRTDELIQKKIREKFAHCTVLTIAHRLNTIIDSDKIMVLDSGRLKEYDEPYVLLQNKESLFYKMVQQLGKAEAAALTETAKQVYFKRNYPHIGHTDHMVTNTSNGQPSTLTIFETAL
In short: (§1)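 Murine C6 cells stably expressing FLAG-tagged human or cynomolgus ABCC4 incubated 30 min on ice with antibodies, either 5 ug/mL or serially diluted from 100 ug/mL, in PBS+2% FBS+0.02% azide. Detection with PE anti-human IgG F(ab′)2 by flow cytometry; EC50 at half-maximal MFI; negative below background, positive >3× background.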

cynomolgus ABCC4 = assay: Flow cytometry (FACS) binding to C6 cells stably transfected to express cynomolgus ABCC4 (different experiment, different C6.cC4 cell line, Table 4); conditions: for binding to cynomolgus ABCC4 expressed on cell surface: Table 4 study, stated in words; for Cynomolgus ABCC4 binding: different C6.cC4 cell line, C6 cells stably transfected to express cynomolgus ABCC4, FACS, Table 4
In short: as §1

human ABCC4 [2] = biological target: T2, human ABCC4 (human, UniProt O15439 1-1325); assay: FACS, C6 cells stably expressing human ABCC4; + = MFI>3x background
T2 construct: Expressed on murine C6 cells stably transfected with human ABCC4 cDNA with C-terminal FLAG tag; also called MRP4; Multidrug resistance protein 4; not shown: C-terminal fused FLAG tag
T2 sequence: T1 sequence (O15439 1-1325)
Protocol: Antibody binding to cells was evaluated by flow cytometry. Murine C6 cells stably transfected to express human or cynomolgus ABCC4 were washed once in flow cytometry buffer (PBS+2% FBS+0.02% sodium azide), resuspended at 2×10\hat{ }6 cells/mL in flow cytometry buffer, and dispensed into 96-well microtiter plates at 0.1 mL/well. Recombinant antibodies were added to cells at 5 ug/mL for initial binding confirmation, or serially diluted from 100 ug/mL in flow cytometry buffer. After incubating cells on ice for 30 min, cells were washed twice with flow cytometry buffer. Bound antibody was detected with PE-labeled F(ab′)₂ fragment goat anti-human IgG (Jackson ImmunoResearch) and evaluated on an Attune N×T flow cytometer. EC50 is calculated to be the concentration of antibody that gives half maximal response.

Human ABCC4 binding (human ABCC4 [1]): + (Positive (+)=MFI>3× background level)
binding to human ABCC4 expressed on cell surface (human ABCC4 [1]): bind to both human and cynomolgus ABCC4
binding result (human ABCC4 [2]): binds
B1: C4.1134 (antibody, V domains shown)
VH: EVQLVESDGGLVQPGRSLKLSCAASGFTFSDFYMAWVRQAPTKGLEWIATISHDGRNTFYRDSVKGRFTISRDNAKRALYLQMDSLRSEDTATYYCASLTTRYKGVMEAWGQGASVTVSS
VL: DVVMTQSPSHLAASPGESVSINCKASKNIYKYLAWYQQKPGKTNKLLIYSGSTLQSGTPSRFSGSGSGSDFTLTIRNLEPEDFGLYYCQHHNEYPPTFGGGTKLEIK
binding to cynomolgus ABCC4 expressed on cell surface (cynomolgus ABCC4): bind to both human and cynomolgus ABCC4
Cynomolgus ABCC4 binding (cynomolgus ABCC4): + (Positive (+)=MFI>3× background level)

Human ABCC4 binding (human ABCC4 [1]): + (Positive (+)=MFI>3× background level)
binding to human ABCC4 expressed on cell surface (human ABCC4 [1]): bind to both human and cynomolgus ABCC4
binding result (human ABCC4 [2]): binds
B2: C4.1152 (antibody, V domains shown)
VH: B1 VH with Q3K, T50S, F59Y, A78T, T101A, E108G, A114T, S115L
VL: B1 VL
binding to cynomolgus ABCC4 expressed on cell surface (cynomolgus ABCC4): bind to both human and cynomolgus ABCC4
Cynomolgus ABCC4 binding (cynomolgus ABCC4): + (Positive (+)=MFI>3× background level)
